T1: human CD20 antigen (human, UniProt P11836 1-297)
T1 construct: whole, on cells; also called CD20/CHO cells; CD20 on Raji cells
T1 sequence (looked up): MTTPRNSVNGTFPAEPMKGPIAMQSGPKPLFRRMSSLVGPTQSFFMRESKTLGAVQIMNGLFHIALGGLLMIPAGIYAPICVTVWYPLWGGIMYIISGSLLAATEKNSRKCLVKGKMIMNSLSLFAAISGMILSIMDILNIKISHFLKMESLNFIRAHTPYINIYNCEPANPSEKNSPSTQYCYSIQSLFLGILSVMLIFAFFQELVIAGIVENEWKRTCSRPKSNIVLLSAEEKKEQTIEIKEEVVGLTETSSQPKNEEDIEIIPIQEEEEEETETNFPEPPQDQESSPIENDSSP

B1: murine anti-CD20 monoclonal antibody 1K1422 (antibody, V domains shown)
VH: QVQLQQPGAELVKPGASVKMSCRASGYTFTNYNMHWIKQTPGQGLEWIGAIYPGSGDTSYNRKFKGKATLTADTSSSTAYMQFSSLTSADSAVYYCARFTYYYGGTYGAMDYWGQGTSVTVSL
VL: QIVLTQSPPIMSASLGEEITLTCSASSRVSYMLWYQQKSGTSPKLLIYSTSNLASGVPSRFSGSGSGTFYSLTISSVEAEDAADYYCHQWTSNPCTFGGGTKLEIK
notes: Mouse monoclonal antibody from a hybridoma

Columns and labels:
human CD20 antigen [1] = target: T1, human CD20 antigen; experiment: SB cell-ELISA, negative control, concentration not clear
human CD20 antigen [2] = target: T1, human CD20 antigen; experiment: Raji cell-ELISA, negative control, concentration not clear
human CD20 antigen [3] = target: T1, human CD20 antigen; experiment: CD20/CHO cell-ELISA, negative control, concentration not clear
human CD20 antigen [4] = target: T1, human CD20 antigen; experiment: CD20/CHO cell-ELISA, antibody at 10 ng/ml
human CD20 antigen [5] = target: T1, human CD20 antigen; experiment: Raji cell-ELISA, antibody at 320 ng/ml
From the text: (§1) Several murine anti-CD20 monoclonal antibodies and 2B8 were reacted by using 96-well plates to which the SB cells, Raji cells, CD20/CHO cells and CD20 CHO parent cell line were adhered.

human CD20 antigen [6] = target: T1, human CD20 antigen; experiment: SB cell-ELISA, antibody at 320 ng/ml
From the text: as §1

human CD20 antigen [7] = target: T1, human CD20 antigen; experiment: Raji cell-ELISA, antibody at 100 ng/ml
From the text: as §1

human CD20 antigen [8] = target: T1, human CD20 antigen; experiment: CD20/CHO cell-ELISA, antibody at 320 ng/ml
From the text: as §1

human CD20 antigen [9] = target: T1, human CD20 antigen; experiment: Raji cell-ELISA, antibody at 10 ng/ml
From the text: as §1

human CD20 antigen [10] = target: T1, human CD20 antigen; experiment: Raji cell-ELISA, antibody at 1000 ng/ml
From the text: as §1

human CD20 antigen [11] = target: T1, human CD20 antigen; experiment: SB cell-ELISA, antibody at 3 ng/ml
human CD20 antigen [12] = target: T1, human CD20 antigen; experiment: CD20/CHO cell-ELISA, antibody at 100 ng/ml
human CD20 antigen [13] = target: T1, human CD20 antigen; experiment: CD20/CHO cell-ELISA, antibody at 32 ng/ml
human CD20 antigen [14] = target: T1, human CD20 antigen; experiment: SB cell-ELISA, antibody at 1000 ng/ml
From the text: as §1

human CD20 antigen [15] = target: T1, human CD20 antigen; experiment: SB cell-ELISA, antibody at 10 ng/ml
From the text: as §1

human CD20 antigen [16] = target: T1, human CD20 antigen; experiment: CD20/CHO cell-ELISA, antibody at 1000 ng/ml
From the text: as §1

human CD20 antigen [17] = target: T1, human CD20 antigen; experiment: Raji cell-ELISA, antibody at 32 ng/ml
From the text: as §1

human CD20 antigen [18] = target: T1, human CD20 antigen; experiment: SB cell-ELISA, antibody at 100 ng/ml
From the text: as §1

human CD20 antigen [19] = target: T1, human CD20 antigen; experiment: Raji cell-ELISA, antibody at 3 ng/ml
human CD20 antigen [20] = target: T1, human CD20 antigen; experiment: CD20/CHO cell-ELISA, antibody at 3 ng/ml
human CD20 antigen [21] = target: T1, human CD20 antigen; experiment: SB cell-ELISA, antibody at 32 ng/ml
From the text: as §1

human CD20 antigen [22] = target: T1, human CD20 antigen; experiment: CD20/CHO cell-ELISA, antibody at 10 ng/ml; remark: listed apart in the source
From the text: as §1

human CD20 antigen [23] = target: T1, human CD20 antigen; experiment: CD20/CHO cell-ELISA, antibody at 100 ng/ml; remark: listed apart in the source
From the text: as §1

human CD20 antigen [24] = target: T1, human CD20 antigen; experiment: CD20/CHO cell-ELISA, antibody at 32 ng/ml; remark: listed apart in the source
From the text: as §1

human CD20 antigen [25] = target: T1, human CD20 antigen; experiment: CD20/CHO cell-ELISA, antibody at 3 ng/ml; remark: listed apart in the source
From the text: as §1

Row | Molecule | A492 (human CD20 antigen [5]) [A492] | A492 (human CD20 antigen [6]) [A492] | A492 (human CD20 antigen [7]) [A492] | A492 (human CD20 antigen [8]) [A492] | A492 (human CD20 antigen [9]) [A492] | A492 (human CD20 antigen [10]) [A492] | A492 (human CD20 antigen [14]) [A492] | A492 (human CD20 antigen [15]) [A492] | A492 (human CD20 antigen [16]) [A492] | A492 (human CD20 antigen [17]) [A492] | A492 (human CD20 antigen [18]) [A492] | A492 (human CD20 antigen [21]) [A492] | also measured
1 | NC | – | – | – | – | – | – | – | – | – | – | – | – | A492 (human CD20 antigen [1]): 0.028 A492; A492 (human CD20 antigen [2]): 0.035 A492; A492 (human CD20 antigen [3]): 0.07 A492
2 | 2B8 (antibody) | 0.121 | 0.091 | 0.055 | 1.66 | 0.034 | 0.329 | 0.337 | 0.037 | 2.29 | 0.038 | 0.045 | 0.038 | A492 (human CD20 antigen [4]): 0.174 A492; A492 (human CD20 antigen [11]): 0.053 A492; A492 (human CD20 antigen [12]): 1.09 A492; A492 (human CD20 antigen [13]): 0.561 A492; A492 (human CD20 antigen [19]): 0.046 A492; A492 (human CD20 antigen [20]): 0.089 A492
3 | B1 | 0.277 | 0.147 | 0.121 | 1.33 | 0.046 | 0.748 | 0.403 | 0.036 | 2.23 | 0.057 | 0.071 | 0.039 | A492 (human CD20 antigen [22]): 0.105 A492; A492 (human CD20 antigen [23]): 0.842 A492; A492 (human CD20 antigen [24]): 0.238 A492; A492 (human CD20 antigen [25]): 0.068 A492
